Holding throughout (assay): fluorescence anisotropy
On the technique in general: Fluorescence polarisation rises when a labelled molecule tumbles more slowly, as on binding a larger partner.

The target of series [1] is T1, ScPif1p DM (Saccharomyces cerevisiae, UniProt P07271 237-780, E242A;K273A;R281A).
T1 sequence: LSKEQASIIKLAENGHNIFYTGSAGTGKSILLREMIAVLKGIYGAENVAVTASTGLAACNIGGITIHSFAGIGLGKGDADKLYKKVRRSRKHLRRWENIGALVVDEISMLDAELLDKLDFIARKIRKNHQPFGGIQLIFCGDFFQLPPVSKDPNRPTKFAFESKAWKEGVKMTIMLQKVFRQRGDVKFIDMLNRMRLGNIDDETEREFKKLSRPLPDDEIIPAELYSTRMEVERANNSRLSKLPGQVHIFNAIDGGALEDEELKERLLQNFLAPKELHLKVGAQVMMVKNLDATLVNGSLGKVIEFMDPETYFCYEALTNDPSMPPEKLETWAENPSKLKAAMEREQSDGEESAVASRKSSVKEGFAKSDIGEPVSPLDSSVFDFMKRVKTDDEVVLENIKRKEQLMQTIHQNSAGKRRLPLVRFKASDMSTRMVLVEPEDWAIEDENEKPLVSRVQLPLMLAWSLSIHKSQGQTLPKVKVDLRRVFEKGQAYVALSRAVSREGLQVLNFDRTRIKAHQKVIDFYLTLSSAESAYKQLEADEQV

The target of series [2] is T2, ScPif1p (237-780) (Saccharomyces cerevisiae, UniProt P07271 237-780).
T2 sequence: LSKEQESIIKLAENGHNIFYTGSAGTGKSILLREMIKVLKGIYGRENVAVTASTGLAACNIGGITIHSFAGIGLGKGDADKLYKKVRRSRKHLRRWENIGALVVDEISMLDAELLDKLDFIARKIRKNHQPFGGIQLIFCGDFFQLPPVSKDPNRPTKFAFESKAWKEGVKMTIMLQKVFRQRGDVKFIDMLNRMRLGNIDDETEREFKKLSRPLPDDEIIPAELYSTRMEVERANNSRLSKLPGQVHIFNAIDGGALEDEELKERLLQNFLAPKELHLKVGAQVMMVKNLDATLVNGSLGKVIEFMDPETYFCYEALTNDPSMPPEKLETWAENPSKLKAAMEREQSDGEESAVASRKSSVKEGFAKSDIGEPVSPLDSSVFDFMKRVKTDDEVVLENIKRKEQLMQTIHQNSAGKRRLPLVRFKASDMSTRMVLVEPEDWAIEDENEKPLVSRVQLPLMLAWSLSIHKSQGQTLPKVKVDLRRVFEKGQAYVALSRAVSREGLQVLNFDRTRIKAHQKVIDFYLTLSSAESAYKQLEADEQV

Series [3] concerns the target T3, ScPif1p R326C (Saccharomyces cerevisiae, UniProt P07271 237-780, R326C).
T3 sequence: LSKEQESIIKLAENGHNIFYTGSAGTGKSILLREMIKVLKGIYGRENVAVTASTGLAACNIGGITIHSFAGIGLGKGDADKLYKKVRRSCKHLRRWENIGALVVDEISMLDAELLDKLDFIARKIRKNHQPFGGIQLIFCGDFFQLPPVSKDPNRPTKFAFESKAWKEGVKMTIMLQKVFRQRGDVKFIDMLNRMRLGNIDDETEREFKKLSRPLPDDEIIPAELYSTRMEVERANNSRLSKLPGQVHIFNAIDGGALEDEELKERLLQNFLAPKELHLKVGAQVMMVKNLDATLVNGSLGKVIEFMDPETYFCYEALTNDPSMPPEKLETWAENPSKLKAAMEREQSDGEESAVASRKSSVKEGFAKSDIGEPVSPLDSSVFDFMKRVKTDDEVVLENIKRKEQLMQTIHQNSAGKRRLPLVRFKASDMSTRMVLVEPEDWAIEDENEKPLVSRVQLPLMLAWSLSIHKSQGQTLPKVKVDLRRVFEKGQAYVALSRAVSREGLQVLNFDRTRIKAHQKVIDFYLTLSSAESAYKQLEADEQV

For series [4], the target named is T4, ScPif1p E681G (Saccharomyces cerevisiae, UniProt P07271 237-780, E681G).
T4 sequence: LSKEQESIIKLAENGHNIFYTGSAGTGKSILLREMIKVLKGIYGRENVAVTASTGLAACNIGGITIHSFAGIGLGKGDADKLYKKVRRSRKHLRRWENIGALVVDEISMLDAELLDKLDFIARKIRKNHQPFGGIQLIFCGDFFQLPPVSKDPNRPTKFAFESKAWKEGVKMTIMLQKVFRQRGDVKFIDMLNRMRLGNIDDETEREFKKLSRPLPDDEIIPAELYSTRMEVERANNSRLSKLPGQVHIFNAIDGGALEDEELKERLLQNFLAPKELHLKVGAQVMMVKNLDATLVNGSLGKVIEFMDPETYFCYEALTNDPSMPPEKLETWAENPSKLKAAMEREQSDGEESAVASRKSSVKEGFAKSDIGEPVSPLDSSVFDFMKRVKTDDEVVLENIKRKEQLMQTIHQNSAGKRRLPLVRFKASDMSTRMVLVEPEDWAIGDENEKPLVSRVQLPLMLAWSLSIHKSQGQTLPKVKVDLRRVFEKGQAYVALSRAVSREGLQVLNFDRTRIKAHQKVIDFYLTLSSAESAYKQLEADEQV

Series [5] concerns the target T2, ScPif1p (237-780). The source holds these as a separate data set.
Series [6] addresses T2, ScPif1p (237-780). The source holds these as a separate data set.

Broadly, the Kd is the equilibrium constant for the complex coming apart. Read a high Kd as weaker binding.

Read-outs that look alike come from different tables or passages of the source.

B1: GR12 (ssDNA)
DNA: GTGTGTGTGGTG
For B1, the Kd in series [1] was determined as 13.4 ± 0.8 nM; in series [2], 11.2 ± 2.1 nM; in series [3] it was 12.4 ± 2.1 nM; in series [4], 12.4 ± 3.9 nM; in series [5], 7.8 nM.

B2: dsDNA16bp (dsDNA)
DNA 1: CTCTGCTCGACGGATT
DNA 2: AATCCGTCGAGCAGAG
For the molecule B2, the Kd in series [1] amounted to 95.5 ± 8.5 nM; in series [2] it was 81.3 ± 10.3 nM; in series [3], 78.3 ± 9.6 nM; in series [4] it was 56.1 ± 11.6 nM.

B3: F-G417 (structured_DNA)
DNA: AGGGTGGGTGGGTGGGT
For the molecule B3, the Kd in series [1] stood at 23.8 ± 2.5 nM; in series [3], 105 ± 8.4 nM; in series [4], 76.5 ± 10.5 nM; in series [6] it was 25 ± 5.1 nM.

For the origin of these results see PMC5814829.
